Entries after “also recorded” stand apart in the source; their conditions may differ.
Assays:
[1] = system: FGFR2-PHDGH fusion expressing BaF3 cells; test: growth of BaF3 cells expressing FGFR2-PHGDH fusion, absence of FGF ligands (FIG. 9); assay type: cell-based; details: absence of FGF ligands
Description: Antibodies A-F were tested to determine whether they could inhibit the ligand-induced growth of BaF3 cells expressing FGFR2IIIb. Antibodies C, D, and E, which bind FGFR2 Ig-2 and Ig-3, were effective in blocking ligand-induced growth of BaF3 cells expressing wild-type FGFR2IIIb (FIG. 8). The effects of antibodies A-F were then tested on BaF3 cells expressing FGFR2-PHDGH fusions. […] Antibody F inhibited the FGFR2-PHDGH activating fusion in BaF3 cells (FIG. 9).

[2] = system: BaF3 cells overexpressing FGFR2-PHGDH; test: combination of BGJ398 and anti-FGFR2 bivalent antibody, isobolograms and Loewe scores (FIGS. 14, 15); assay type: cell-based; details: absence of FGF10, treated for 5 days
Source text: FIGS. 14B-14D provide isobolograms showing synergy between FGFR inhibitor and the anti-[…] bivalent antibody on the different days and supporting the results shown in FIG. 14A. FIG. 14B corresponds to 3 days after treatment with the BGJ398 inhibitor; FIG. 14C corresponds to 4 days after treatment with the BGJ398 inhibitor; and FIG. 14D corresponds to 5 days after treatment with the BGJ398 inhibitor. FIG. 14E provide Loewe scores showing synergy between the FGFR inhibitor and the anti-FGF2 bivalent antibody on the different days and supporting the results shown in FIG. 14A.
FIG. 15A presents charts showing synergy between the FGFR2 small molecule inhibitor BGJ398 and an anti-FGFR2 bivalent antibody (Antibody D) in the presence of FGF ligand (+FGF) in a cell-based assay using BaF3 cells overexpressing an FGFR2 fusion molecule (FGFR2-PHGDH) after 3, 4 and 5 days of treatment with the inhibitor and the antibody. […] FIGS. 15B-15D provide isobolograms showing synergy between the FGFR inhibitor and the anti-FGF2 bivalent antibody on the different days and supporting the results shown in FIG. 15A. FIG. 15B corresponds to 3 days after treatment with the BGJ398 inhibitor; FIG. 15C corresponds to 4 days after treatment with the BGJ398 inhibitor; and FIG. 15D corresponds to 5 days after treatment with the BGJ398 inhibitor. […]

[3] = target: FGFR2b alpha IIIb antigen (UniProt P21802); test: SPR (Biacore), antibody immobilized, FGFR2b alpha IIIb in flow
[4] = system: FGFR2-PHDGH fusion expressing BaF3 cells; test: ligand stimulated (FGF10) growth of FGFR2-PHGDH fusion expressing BaF3 cells (FIG. 10); assay type: cell-based; details: FGF10 present
Description: FIG. 10 is a graph showing that antibodies C, D, E and F have activity against ligand stimulated growth of FGFR2-PHDGH fusion expressing BaF3 cells.
The growth of BaF3 cells expressing an FGFR2-PHDGH fusion was assayed in the presence of FGF ligand, FGF10. Antibodies C, D, E and F inhibited ligand stimulated growth of FGFR2-PHDGH fusion expressing BaF3 cells (FIG. 10). Based on the results reported herein above, antagonistic biparatopic antibodies are made using the FGFR2 antibody combinations shown in FIG. 11A. These combinations result in increased growth inhibition effects in oncogenic or cancer cells (e.g., transformed BaF3 cells) that overexpressed […]. Thus, antibodies that bind to epitopes have increased inhibitory and killing effects against cancer cells. Designs for antagonistic biparatopic antibodies are shown at FIGS. 11B and 11C. Advantageously, including complementary mutations in VH-VL and CH1-CL on one-half of the biparatopic antibody results in preferential heterodimeric pairing between two different chains rather than chains from the other half of the same antibody. Alternatively, a linker method is used to create scFab, scFv, or DuoBodies. In this method two antibody chains are each generated in different cells and mixed in vitro. Such methods are known in the art and described, for example, by K. Ding et al, March 2017, Appl. Microbiol. […]

[5] = target: FGFR2b alpha IIIb (Homo sapiens, UniProt P21802); test: Surface Plasmon Resonance (SPR) binding; details: FGFR2b alpha IIIb antigen
Source text: FIGS. 17A-17C provide a schematic and tabular data related to assessments made to compare the avidity of biparatopic antibodies to that of their parental (bivalent monospecific) antibodies.
Surface Plasmon Resonance (SPR) as known in the art was used to determine the binding affinities of biparatopic antibodies. The SPR-based binding method involves immobilization of a ligand (antibody) on the surface of a sensor chip. The binding partner of interest or an analyte (FGFR2 ECD) flow through the flow channel. Different concentrations of an analyte flow over the ligand, and the interactions of ligand-analyte can be characterized. The SPR signal originates from changes in the refractive index of the […] at the surface of the sensor chip. The increase in mass associated with a binding event causes a proportional increase in the refractive index, which is observed as a change in response-resonance signal. In brief, for the experiments using the antibodies described herein, the SPR assay was carried out by immobilizing antibodies (used as […]) at a concentration ranging from 1-1000 nM and flow-through FGFR2b alpha IIIb antigen (used as […]). The antibody kinetic data for the interaction with FGFR2b alpha IIb antigen were fitted to the 2-state and 1-1 binding models using Biocore software. The mean and standard deviation KD values are derived from at least three independent runs.
Using SPR, the kinetics of 6 monospecific and 13 biparatopic antibodies for binding to a single antigen, FGFR2b alpha IIb, was measured so as to compare avidity of the biparatopic antibodies to their parental antibodies. Without wishing to be bound by theory, it was expected that the biparatopic antibodies would bind to the FGFR2 antigen more tightly than their parental antibodies and that the tighter binding biparatopic antibodies among the antibodies that were assessed would be more efficient in blocking FGFR2 dimerization (FIG. 17A), thereby leading to inhibition or blocking of constitutive FGFR2 signaling and/or oncogenic transformation. […]

[6] = target: FGFR2b alpha IIIb antigen (UniProt P21802); test: SPR (Biacore), antibody on chip, FGFR2b alpha IIIb antigen
[7] = target: FGFR2 on SNU-16 gastric cancer cell line with FGFR2 amplification (UniProt P21802); test: row 'Kd (nM) (FACS)'; FACS on SNU-16 cells
[8] = target: FGFR2 on SNU-16 gastric cancer cell line with FGFR2 amplification (UniProt P21802); test: FACS on SNU-16 cells, % cells with FITC+ [cont.]
[9] = target: FGFR2 on SNU-16 gastric cancer cell line with FGFR2 amplification (UniProt P21802); test: FACS on SNU-16 cells, % cells with FITC+ against log antibody concentration; Kd printed in the legend box [cont.]
[10] = target: FGFR2 on SNU-16 gastric cancer cell line with FGFR2 amplification (UniProt P21802); test: FACS on SNU-16 cells, % No. of cells with FITC+ [cont.]
[11] = target: T1, FGFR2IIIb; test: row 'Kd (nM) (patent)', value quoted from the source patent; method: solution equilibrium titration (SET)/ELISA+ECL-FGFR2IIIb
T1 construct: also called purified FGFR2IIIb
T1 chain: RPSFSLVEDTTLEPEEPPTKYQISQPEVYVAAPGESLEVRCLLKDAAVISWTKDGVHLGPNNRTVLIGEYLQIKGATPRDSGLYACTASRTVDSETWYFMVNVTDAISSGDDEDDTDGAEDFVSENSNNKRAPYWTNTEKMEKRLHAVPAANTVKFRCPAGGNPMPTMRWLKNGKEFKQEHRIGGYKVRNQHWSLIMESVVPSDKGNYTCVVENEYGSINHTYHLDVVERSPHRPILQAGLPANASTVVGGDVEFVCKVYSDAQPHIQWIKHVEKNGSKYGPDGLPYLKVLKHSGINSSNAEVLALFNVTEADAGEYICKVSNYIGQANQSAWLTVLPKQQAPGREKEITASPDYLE

B1: 12433 (antibody, V domains shown)
VH: QVQLVQSGAEVKKPGESLKISCKGSGYSFTNYYIHWVRQMPGKGLEWMGAIYPDNSDTTYSPSFQGQVTISADKSISTAYLQWSSLKASDTAMYYCARGADIWGQGTLVTVSS
VL: DIQMTQSPSSLSASVGDRVTITCRASQDIDPYLSNWYQQKPGKAPKLLIYDASNLQSGVPSRFSGSGSGTDFTLTISSLQPEDFATYYCQQTTSHPYTFGQGTKVEIK
notes: the duobody scheme implies IgG1 with K409R or F405L; also called Antibody F; N12433
Question: What does the source list for B1?
Answer: inhibitory activity against the FGFR2-PHGDH activating fusion in BaF3 cells [1]: inhibitory activity; also recorded: inhibited; synergy with BGJ398 in inhibiting FGFR2-PHGDH driven BaF3 cell growth [2]: synergizes; Binding Stoichiometry [3]: 2.1; inhibition of ligand stimulated growth of FGFR2-PHGDH fusion expressing BaF3 cells [4]: have activity; also recorded: inhibited; Kd [5]: 7.5 nM; Kd [6]: 7.5 nM; Kd [7]: 8.81 nM; EC50 (read off the curve) [8]: 1 µg/mL; Kd [9]: 8.81 nM; EC50 (read off the curve) [10]: 1 µg/mL; Kd [11]: 5.6 nM
